Data published in IntAct's records for PubMed 23559067.

B1: X-linked retinitis pigmentosa GTPase regulator (Homo sapiens), Q92834 (parent)
chain: MREPEELMPDSGAVFTFGKSKFAENNPGKFWFKNDVPVHLSCGDEHSAVVTGNNKLYMFGSNNWGQLGLGSKSAISKPTCVKALKPEKVKLAACGRNHTLVSTEGGNVYATGGNNEGQLGLGDTEERNTFHVISFFTSEHKIKQLSAGSNTSAALTEDGRLFMWGDNSEGQIGLKNVSNVCVPQQVTIGKPVSWISCGYYHSAFVTTDGELYVFGEPENGKLGLPNQLLGNHRTPQLVSEIPEKVIQVACGGEHTVVLTENAVYTFGLGQFGQLGLGTFLFETSEPKVIENIRDQTISYISCGENHTALITDIGLMYTFGDGRHGKLGLGLENFTNHFIPTLCSNFLRFIVKLVACGGCHMVVFAAPHRGVAKEIEFDEINDTCLSVATFLPYSSLTSGNVLQRTLSARMRRRERERSPDSFSMRRTLPPIEGTLGLSACFLPNSVFPRCSERNLQESVLSEQDLMQPEEPDYLLDEMTKEAEIDNSSTVESLGETTDILNMTHIMSLNSNEKSLKLSPVQKQKKQQTIGELTQDTALTENDDSDEYEEMSEMKEGKACKQHVSQGIFMTQPATTIEAFSDEEVGNDTGQVGPQADTDGEGLQKEVYRHENNNGVDQLDAKEIEKESDGGHSQKESEAEEIDSEKETKLAEIAGMKDLREREKSTKKMSPFFGNLPDRGMNTESEENKDFVKKRESCKQDVIFDSERESVEKPDSYMEGASESQQGIADGFQQPEAIEFSSGEKEDDEVETDQNIRYGRKLIEQGNEKETKPIISKSMAKYDFKCDRLSEIPEEKEGAEDSKGNGIEEQEVEANEENVKVHGGRKEKTEILSDDLTDKAEDHEFSKTEELKLEDVDEEINAENVESKKKTVGDDESVPTGYHSKTEGAERTNDDSSAETIEKKEKANLEERAICEYNENPKGYMLDDADSSSLEILENSETTPSKDMKKTKKIFLFKRVPSINQKIVKNNNEPLPEIKSIGDQIILKSDNKDADQNHMSQNHQNIPPTNTERRSKSCTIL
B2: Retinal rod rhodopsin-sensitive cGMP 3',5'-cyclic phosphodiesterase subunit delta (Homo sapiens), O43924 (parent)
chain: MSAKDERAREILRGFKLNWMNLRDAETGKILWQGTEDLSVPGVEHEARVPKKILKCKAVSRELNFSSTEQMEKFRLEQKVYFKGQCLEEWFFEFGFVIPNSTNTWQSLIEAAPESQMMPASVLTGNVIIETKFFDDDLLVSTSRVRLFYV
partner: B1 chain

Variants of: B1
Conditions: with pde6d_human PDE6D, O43924

Variant	effect of a mutation on the interaction
E216R	disrupting interaction

Variants of: B2
Conditions: with rpgr_human RPGR, Q92834

Variant	effect of a mutation on the interaction
R48E	disrupting interaction
